From patent US20190284246A1 come the findings set out here.

In test [1] the target is ΔN28-CofB (enterotoxigenic Escherichia coli (ETEC)). The experiment in a line: ITC, peptide titrated into ΔN28-CofB.
Test [2] shares this target. Put plainly: ITC.
Test [3] has the same target. Put plainly: ITC, CofJ titrated into ΔN28-CofB, 25° C. Background: In ITC the heat of successive injections is recorded.

One may read the Kd as the concentration at which binding is half-saturated. A lower Kd goes with a tighter complex. With CofJ^1-24 peptide, the Kd in test [1] amounted to 4000 nM. Substance “CofJ^1-24-GCN4 inhibitory peptide (designed binder)” showed a Kd in test [1] of 40 nM. In test [2], the fold stronger binding affinity than CofJ to ΔN28-CofB was 5 fold. For CofJ^4-16 peptide, in test [1], the Kd came out at 4000 nM.

Consider “CofJ^4-16-GCN4 inhibitory peptide (designed binder)”, for which the Kd in test [1] was 80 nM. Further, the fold stronger binding affinity than CofJ to ΔN28-CofB in test [2] amounted to 2.5 fold. As to secretory protein CofJ, the Kd in test [3] was determined as 200 nM.
